The target in this assay is Recombinant Mip (25 kDa) (L. pneumophila) (UniProt Q5ZXE0). Description: co-IP.

Values joined by “and” are separate entries in the source; they are usually repeats but may differ in a detail not shown here. Identical values can stand only once.

Turning to “Flagellin FlaA (LPC_0756), native (natural protein)”, the antibody signal from Western blot (ImageJ) (relative units) is 4380 and 4310; the band intensity in Coomassie stained gel (ImageJ) (relative units) was 5680 and 5740.

Take Lpc2061-6xHis-Tag (natural protein): the antibody signal from Western blot (ImageJ) (relative units) was 4690 and 4520; the band intensity at 15 kDa in Coomassie stained gel (ImageJ) (relative units) is 4600 and 7390; the band intensity in Coomassie stained gel (ImageJ) (relative units) is 1900 and 795.

For the substance SspB-Strep-TagII (natural protein), the antibody signal from Western blot (ImageJ) (relative units) was 5030 and 5180; the band intensity in Coomassie stained gel (ImageJ) (relative units) was 4300 and 4240.

Source of the values: paper PMC9670971.
